Measured values: paper PMC8913699, “Overall structure of fully assembled cyanobacterial KaiABC circadian clock complex by an integrated experimental-computational approach” (Communications Biology, 2022)

T1: B6C6 complex (KaiB-KaiC complex formed beforehand and isolated by SEC) (Synechococcus sp. PCC 7942, UniProt Q79PF5 1-102; Q79PF4 1-519, S431 substituted with an aspartate residue)
T1 construct: KaiB, Synechococcus sp; PCC 7942, as m2; KaiC, Synechococcus sp; PCC 7942, phosphorylation mimic with S431 replaced by aspartate, as m3; Oversaturating KaiA was added to this purified complex; the final molar ratio [KaiA]:[KaiB]:[KaiC] was 24:12:6; In the iCM-SANS sample both chains were 75%-deuterated; also called BC complex; B6C6 subcomplex; source: E. coli proteins, purified; KaiB and KaiC …
T1 sequence 1: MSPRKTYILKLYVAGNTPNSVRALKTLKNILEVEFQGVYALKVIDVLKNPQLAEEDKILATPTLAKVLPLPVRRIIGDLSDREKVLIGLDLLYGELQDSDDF
T1 sequence 2: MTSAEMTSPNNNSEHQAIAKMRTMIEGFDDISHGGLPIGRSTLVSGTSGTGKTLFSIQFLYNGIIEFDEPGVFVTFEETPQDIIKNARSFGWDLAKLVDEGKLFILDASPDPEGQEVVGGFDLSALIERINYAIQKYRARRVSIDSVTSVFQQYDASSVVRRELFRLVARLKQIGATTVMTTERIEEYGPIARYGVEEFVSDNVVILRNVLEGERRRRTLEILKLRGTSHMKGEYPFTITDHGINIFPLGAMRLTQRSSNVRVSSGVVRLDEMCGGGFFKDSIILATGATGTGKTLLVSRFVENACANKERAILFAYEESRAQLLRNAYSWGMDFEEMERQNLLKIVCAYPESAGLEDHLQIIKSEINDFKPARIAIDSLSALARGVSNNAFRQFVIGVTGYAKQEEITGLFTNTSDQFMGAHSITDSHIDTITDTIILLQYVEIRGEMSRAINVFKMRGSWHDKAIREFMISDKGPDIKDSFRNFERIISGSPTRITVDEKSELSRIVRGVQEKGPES

B1: phosphorylation mimic KaiC (S431 substituted with aspartate) from Synechococcus sp. PCC 7942 (natural protein)
chain: T1 sequence 2
notes: KaiC, Synechococcus sp; PCC 7942, phosphorylation mimic with S431 replaced by aspartate; A 75%-deuterated form (dC) was used in the iCM-SANS sample; Buffer contained 1 mM ATP and 5 mM MgCl2; also called C6 (homohexamer); hC; source: E. coli, purified as a Strep-tagged recombinant protein
B2: KaiA from Synechococcus sp. PCC 7942 (natural protein)
chain: LSQIAICIWVESTAILQDCQRALSADRYQLQVCESGEMLLEYAQTHRDQIDCLILVAANPSFRAVVQQLCFEGVVVPAIVVGDRDSEDPDEPAKEQLYHSAELHLGIHQLEQLPYQVDAALAEFLRLAPVETMADHIMLMGANHDPELSSQQRDLAQRLQERLGYLGVYYKRDPDRFLRNLPAYESQKLHQAMQTSYREIVLSYFSPNSNLNQSIDNFVNMAFFADVPVTKVVEIHMELMDEFAKKLRVEGRSEDILLDYRLTLIDVIAHLCEMYRRSIPRET
notes: KaiA, Synechococcus sp; PCC 7942; Both N- and C-terminal domains were present in the sample, since the study locates the N-terminal domains, so it was probably whole KaiA; Hydrogenated in all samples; also called A2 (homodimer); hA (hydrogenated KaiA); source: E. coli, purified after cleavage of the his-tag
B3: KaiB from Synechococcus sp. PCC 7942 (natural protein, UniProt Q79PF5 1-102, looked up)
chain: T1 sequence 1
notes: KaiB, Synechococcus sp; PCC 7942; A 75%-deuterated form (dB) was used in the iCM-SANS sample; also called B4 (homotetramer); hB; source: E. coli, purified after cleavage of the GST-tag

Columns and labels:
[1] = biological target: the molecule itself; assay: AUC; sedimentation velocity, Rayleigh interference optics, 60,000 rpm, 30 °C; ternary KaiA-KaiB-KaiC mixture 1.0 mg/mL (KaiA added in excess to SEC-purified B6C6, final 24:12:6); hydrogenated proteins in H2O buffer: 20 mM Tris-HCl pH 8.0, 150 mM NaCl, 5 mM MgCl2, 0.5 mM EDTA, 1 mM DTT, 1 mM ATP
[2] = biological target: the molecule itself; assay: AUC-SAXS; KaiA alone, 1.0 mg/mL, 25 °C; SV-AUC at 60,000 rpm with laboratory SAXS (NANOPIX); experimental profile compared with the crystal dimer and with simulated dimers
[3] = biological target: T1, B6C6 complex (KaiB-KaiC complex formed …); assay: AUC; sedimentation velocity, Rayleigh interference optics, 60,000 rpm, 30 °C; ternary KaiA-KaiB-KaiC mixture 1.0 mg/mL (KaiA added in excess to SEC-purified B6C6, final 24:12:6); hydrogenated proteins in H2O buffer: 20 mM Tris-HCl pH 8.0, 150 mM NaCl, 5 mM MgCl2, 0.5 mM EDTA, 1 mM DTT, 1 mM ATP; conditions: both partners purified
[4] = biological target: B1; assay: SEC; KaiB and KaiC mixed 9:6 in 20 mM Tris-HCl pH 8.0, 150 mM NaCl, 5 mM MgCl2, 0.5 mM EDTA, 1 mM DTT, 1 mM ATP at 10 °C; complex isolated with SEC; conditions: both partners purified
[5] = biological target: B2; assay: AUC; sedimentation velocity, Rayleigh interference optics, 60,000 rpm, 30 °C; ternary KaiA-KaiB-KaiC mixture 1.0 mg/mL (KaiA added in excess to SEC-purified B6C6, final 24:12:6); hydrogenated proteins in H2O buffer: 20 mM Tris-HCl pH 8.0, 150 mM NaCl, 5 mM MgCl2, 0.5 mM EDTA, 1 mM DTT, 1 mM ATP; conditions: both partners purified

Binder: B1
- stoichiometry N [1]: 6

Binder: B2
- stoichiometry N [2]: 2
- stoichiometry N [3]: 12 KaiA protomers per B6C6 complex

Binder: B3
- binding result [4]: binds
- binding result [5]: binds
